The results in this text go back to the nanobody polyreactivity screen of Harvey et al. (2022).

The nature of the data set: yeast display, Sf9 membrane polyspecificity reagent, FACS + sequencing; frameworks hold sequencing errors. The method, boiled down: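 Sorting gates, low and high (top ~1%), were placed on anti-HA fluorescence to track expression and on streptavidin fluorescence to track reagent binding. A clone's polyreactivity label is taken from the gate it came out of. The reagent was 10% biotinylated, detergent-solubilized Sf9 membrane, applied for 1 hour at 4 °C to galactose-induced yeast display cells.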
Take “QVQLVESGGGLVQAGGSLRLSCAASGSTFQNNAMGWYRQAPGKERELVATISRRGGSTYYADSVKGRFTISRDIAKNTVYLQMNSLKPEDTAVYYCTGRDYWGQGTQVTVSS”: the “polyreactivity (PSR sort gate)” value was “high polyreactivity”.
For the sequence “QVQLVESGGGLVQAGGSLRLSCAASGSTFQPYAMGWSRQAPGKERECVATISGSAGSTYYADSVKGRFKISRDNAKNTVYLQMNSLKPEDTAVYYCKAESPEGYRLLDYWGQGTQVTVSS”, the “polyreactivity (PSR sort gate)” value is reported as “low polyreactivity”.
Take “QVQLVESGGGLVQAGGSLRLSCAASGSTFQPYAMGWYRPAPGKERELVAAIRYSGGITYYADSVKGRFTISRDNAKNSVYLQMNSLKPEDTAVYYCAAYGFYGGDYWGQGTQVTVSS”: the “polyreactivity (PSR sort gate)” value is reported as “high polyreactivity”.
The same measure for “QVQLVESGGGLVQAGGSLRLSCAASGSTFQRYAMGWYRQAPGKERELVAAINKSGGTTYYADSVKGRFTISRDNAKNTVYLLMNSLKPEDTAVYYCATDNPVVYQPGNMDYWGQGTQVTVSS”: “low polyreactivity”.
The same measure for “QVQLVESGGGLVQAGGSLRLSCAASGSTFQRYAMGWYRQAPGKERELVAVITNGGSTKYADSVKGRFTISRDNAKNTVYLQMNSLKPEDTAVYYCAAGLRSWSTGLWYGYWGQGTQVTVSS”: “high polyreactivity”.
For the sequence “QVQLVESGGGLVQAGGSLRLSCAASGSTFQRYTMGWYRQPPGKERELVAAISQSGGRTYYADSVKGRFTISRDNAKNTVYLQMNSLKPEDTAVYYCNAASRTKFDYWGQGTQVTVTS”, the “polyreactivity (PSR sort gate)” value was “high polyreactivity”.
As to “QVQLVESGGGLVQAGGSLRLSCAASGSTFQSNAMGWYRQAPGKERELVATISWSGGITYADSVKGRFTISRDNAKNTVYLQMNSLKPEDNAVHYFTDPDFDYWGQGTQVTLSS”, the “polyreactivity (PSR sort gate)” value was “low polyreactivity”.
For “QVQLVESGGGLVQAGGSLRLSCAASGSTFQSNAMGWYRQAPGKERELVATITQSGATTYYADSVKGRFTISRDNAKNTVYLQMNSLKPEDTAVYYCNVDTYQKRWFWLDLDGGYWGQGTQVTVSS”, the “polyreactivity (PSR sort gate)” value is “low polyreactivity”.
For the sequence “QVQLVESGGGLVQAGGSLRLSCAASGSTFQSYTMGWYRQAPGKERELVAGISRSGGSTYYADSVKGRFTISRDNAKNTVYLQMNSLKPEDTAVYYCAAAFYGRWGGFDYWGQGTQVTVSS”, the “polyreactivity (PSR sort gate)” value is “high polyreactivity”.
The value for “QVQLVESGGGLVQAGGSLRLSCAASGSTFQTYAMGGYRQAPGKEREFVAAITSGGSTNYADSVKGRFTISRDNAKNTVYLQMNSLKPEDTAVYYCAVRQIYQTSDHRLQYDYWGQGTQVTVSS” was “low polyreactivity”.
As for “QVQLVESGGGLVQAGGSLRLSCAASGSTFQTYAMGWYRQAPGKERELVAAITYGGSTNYADSVKGRFTMSRANAKNTVYLLMNSLKPEDTAVYYCAARDGDQRPRLRYDYWAQGTQVTVSS”, the “polyreactivity (PSR sort gate)” value was “low polyreactivity”.
The same measure for “QVQLVESGGGLVQAGGSLRLSCAASGSTFQVYAMGWYRPAPRKERELVATIRRTGGSTYYADSVKGRFTISRDNAKNTVYLQMNSLKPEDTAVYYCAARTYGGIVLRLDYWGQGTQVTVSS”: “high polyreactivity”; for “QVQLVESGGGLVQAGGSLRLSCAASGSTFQVYAMGWYRQAPGKERELVAAISNGGRTNYADSVKGRFTISRDNAKNTVYLLMNSLKPEDTAVYYCNADQVWWSFDRVLVGYEYWGQGTQVTVSS”: “low polyreactivity”.
The value for “QVQLVESGGGLVQAGGSLRLSCAASGSTFQVYGMGWYRQAPGKERELGAAISRSGGRTYYADSVKGRFTISRDNAKNTVYLQMNSLKPEDTAVYYCNAPISYYDEYYYWGQGTQVTVSS” was “high polyreactivity”.
“QVQLVESGGGLVQAGGSLRLSCAASGSTFQWNAMGWYRQAPGKERELVAAISKSGGRTYYADSVKGRFTISRDNAKNTVYLQMNSLKPEDTAVYYCNALGSLDGRYGYWGQGTQVTVSS”: the “polyreactivity (PSR sort gate)” value is “high polyreactivity”.
The value for “QVQLVESGGGLVQAGGSLRLSCAASGSTFQYNAMGWYRQAPGKERELVAAISLSGGSTYYADSVKGRFTISRDNAKNTVYLQMNSLKPEDTAVYYCATEYYVYDYYYWAWYGYEYWGQGTQVTVSS” was “high polyreactivity”; that for “QVQLVESGGGLVQAGGSLRLSCAASGSTFQYYAMGWYRQAPGKEGELVATINSGGSTNYADSVKGRFTISRDNAKNTVYLQMNSLKPEDTAVYYCARRVRYKHYDYWGQGTQVTVSS” was “high polyreactivity”.
For the sequence “QVQLVESGGGLVQAGGSLRLSCAASGSTFQYYAMGWYRQAPGKERELVAAITHSGTRTYYADSVKGRFTISRDNAKNTVYLQMNSLKPEDTAVYYCAARGYGKYDYWGQGTQVTVSS”, the “polyreactivity (PSR sort gate)” value is “high polyreactivity”.
As for “QVQLVESGGGLVQAGGSLRLSCAASGSTFQYYAMGWYRQAPGKERELVARISDSSANTYYADSVKGRFTISRDNAKNTVYLQMNSLKPEDTAVYYCAASVPYKFYSVVSVRYEYWGQGTQVTVSS”, the “polyreactivity (PSR sort gate)” value is given as “low polyreactivity”.
The value for “QVQLVESGGGLVQAGGSLRLSCAASGSTFQYYAMGWYRQAPGKERELVASISLSGTSTYYADSVKGRFTISRDNAKNTVYLQMNSLKPEDTAVYYCAADIVPWWASFLYDGEDYWGQGTQVTVSS” was “low polyreactivity”.
The same measure for “QVQLVESGGGLVQAGGSLRLSCAASGSTFQYYAMGWYRQAPGKERELVDAISPSVDTTFYADSVKGRFTISRDNAKNTVYLQMNSLKPEDTAVYFCAKRYVDPLGSGTLGSWGQGTQVTVSS”: “low polyreactivity”; for “QVQLVESGGGLVQAGGSLRLSCAASGSTFRAYAMGWYRQAPGTEWELVAAISAGGSTNYADSVKGRFTISRDHAKNTVSLQMNCLKRDDTAVYYCAKGWYYVSPYGYRKRVYYWGQGTQVTVSS”: “high polyreactivity”.
Take “QVQLVESGGGLVQAGGSLRLSCAASGSTFRDYAMGWSRQAPGKERELVAVISSSGSRTNYADSVKGRFTISRDNAKNTVYLQMNSLKREDTAVYYCAADTTRRAPGYYYWGQGTQVTVSS”: the “polyreactivity (PSR sort gate)” value is listed as “high polyreactivity”.
For the sequence “QVQLVESGGGLVQAGGSLRLSCAASGSTFREYAMGWYIQAPGKERELVAAITSRGGSTYYADSVKGRFTISRDNAKNTVYLQMNSLKPEDTAVYYCAADHGTKAEYYYWGQRTQVTVSS”, the “polyreactivity (PSR sort gate)” value was “high polyreactivity”.
As to “QVQLVESGGGLVQAGGSLRLSCAASGSTFRFYAMGWYRQAPGKERELVAAISSGGSTNYADSVKGRFTISRDNAKNTVYLQMNSLKPEDTAVYYCNAEDYNGRQYYHKMDYWGQGTQVTVSS”, the “polyreactivity (PSR sort gate)” value was “high polyreactivity”.
As for “QVQLVESGGGLVQAGGSLRLSCAASGSTFRGNAMGWSRQAPGKERELVAAISSSGGSTYYADSVKGRFTISRDNAKNTVYLQMNSLKPEDTAVYYCAALYHWTYDYWGQGTQVTVSS”, the “polyreactivity (PSR sort gate)” value is reported as “low polyreactivity”.
Take “QVQLVESGGGLVQAGGSLRLSCAASGSTFRGYAMGWYRKATGKERELVATNSGSDGTTYYADSVKGRFTISRENAKNTVYLQMNSLKPEDTAVYYCAAGETFEMYYWGQGTQVTVSS”: the “polyreactivity (PSR sort gate)” value is recorded as “low polyreactivity”.
The same measure for “QVQLVESGGGLVQAGGSLRLSCAASGSTFRGYAMGWYRQAPGKEREFVAAITYTGSSTTYADSVKGRFTISRDNAKNTVYLQMNSLKPEDTAVYYCNKYTRFASSNMYYWGQGTQVTVSS”: “high polyreactivity”.
With “QVQLVESGGGLVQAGGSLRLSCAASGSTFRGYAMGWYRQAPGKERELVAAISWSAGSTYYADSVKGRFTISRDNAKNTVYLQMNRLKPEDTAVYYCAKASVALRYFSYSLGRDYWGQGTQVTVSS”, the “polyreactivity (PSR sort gate)” value is on record as “low polyreactivity”.
Turning to “QVQLVESGGGLVQAGGSLRLSCAASGSTFRGYAMGWYRQAPGKERELVAAITGSGDRTRYADSVKGRFTISRDNAKNTVYIQMNSLKPEDTAVYYCAKFCPHWAYYSWGQGTQVTVSS”, the “polyreactivity (PSR sort gate)” value is “high polyreactivity”.
As for “QVQLVESGGGLVQAGGSLRLSCAASGSTFRGYAMGWYRQAPGKERELVAAITSSGGSTYYADSVKGRFTISRDNAKNTVYLQMNSLKPEDTAVYYCAAEGGYWYTITYSYWLDYWGQGTQVTVSS”, the “polyreactivity (PSR sort gate)” value was “low polyreactivity”.
Take “QVQLVESGGGLVQAGGSLRLSCAASGSTFRGYTMGWYRQAPGKERELVATISYRSGSTSYADSVKGRFTISRDNAKNTVYLQMNSLKPEDTAVYYCNRVYSKPRYYYWGQGTQVTVSS”: the “polyreactivity (PSR sort gate)” value is recorded as “high polyreactivity”.
The value for “QVQLVESGGGLVQAGGSLRLSCAASGSTFRHNAMGRYRPAPGKERELVAAITRSGGRTFYADSVKGRFTISRDNAKNTVYLQMNSLKPEDTAVYYCAAERITPYDSSSAYDYWGQGTQVTVSS” was “low polyreactivity”; that for “QVQLVESGGGLVQAGGSLRLSCAASGSTFRIYAMGWYRQAPGKDRELVAGITRRGGSTFYADSVKGRFTISRDNANNTVYLQMNSLKPEDTAVYYCAARFRGGMDYWGQGTQVTVSS” was “high polyreactivity”; that for “QVQLVESGGGLVQAGGSLRLSCAASGSTFRIYAMGWYRQAPGKERELVAAISRSGGSTYYADSVKGRFTISRDNAKNTVYLQMNSLKPEDTAVYYCAAQPSYRYYKSYDYWGQGTQVTVSS” was “high polyreactivity”.
On to “QVQLVESGGGLVQAGGSLRLSCAASGSTFRIYAMGWYRQAPGKERELVAAISSGGRTNYADSVKGRFTISRDNAKNTVYLQMNSLKPEDTAVYYCNAVFLPTYHFDYWGQGTQVTVSS”, for which the “polyreactivity (PSR sort gate)” value is reported as “high polyreactivity”.
The value for “QVQLVESGGGLVQAGGSLRLSCAASGSTFRIYVMGWYRQAPGKEREFVAAISRGGGSTYYADSVKGRFTISRDNAKNTVYLQMNSLKPVDTAVYYCAAVTRDYGSRSGLDYWGQGTQVTVSS” was “high polyreactivity”; that for “QVQLVESGGGLVQAGGSLRLSCAASGSTFRKYAMGWYRHAPGKEREFVAAITWSTGTTYYADSVKGRFTISRDHAKNTVYLQMNSLKPEDTAVYDCAADSQPPHELYESIEHESWGQGTQVTVSS” was “low polyreactivity”; that for “QVQLVESGGGLVQAGGSLRLSCAASGSTFRKYAMGWYRQAPGKERELVAAISRGGTSTYYADSVKGRFTISRDNAKNTVYLQMNSLKPEDTAVYYCRYFRYSYGTKYDYWGQGTQVTVSS” was “high polyreactivity”.
The same measure for “QVQLVESGGGLVQAGGSLRLSCAASGSTFRLNAMGWYRQAPGKERELVAAISWTGGSTYYADSVKGRFTISRDNAKNTVSLQMNSLKPEDSAVYYCATVSYYDRYDYDYWGQGTQVTVSS”: “low polyreactivity”; for “QVQLVESGGGLVQAGGSLRLSCAASGSTFRLYAMGWYRQAAGKERELVAAISYSGGSTYYADSVKGRFTISRDTAKNTVYLQMNSLKPEETAVYYCNAVRRHGGYYDYGYWGQGTQVTVSS”: “high polyreactivity”.
